Results taken from patent publication US20180118806A1 (MIT, published 2018).
Where “and” joins values, the source holds several entries; their conditions need not be identical. Identical values can stand only once.

T1: Rantes (CCL5) (UniProt P13501 24-91)
T1 construct: In the yeast 2-hybrid screen the ligand construct is not described
T1 sequence (looked up): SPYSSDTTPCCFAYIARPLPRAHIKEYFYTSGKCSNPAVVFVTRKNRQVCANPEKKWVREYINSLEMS

B1: SZ352a = CCR5QTY(352a) (receptor)
chain: MDYQVSSPIYDINYYTSEPCQKINVKQIAARQQPPQYSQTFTYGFTGNMQTTQTQINCKRLKSMTDIYLQNQAISDQYYQQTTPYWAHYAAAQWDFGNTMCQQQTGQYFTGYYSGTYYTTQQTTDRYLAVVHAVFALKARTTTYGTTTSTTTWTTATYASQPGTTYTRSQKEGLHYTCSSHFPYSQYQFWKNFQTLKITIQGQVQPQQTMVTCYSGTQKTLLRCRNEKKRHRAVRQTFTTMTTYYQYWAPYNTTQQLNTFQEFFGLNNCSSSNRLDQAMQVTETQGMTHCCTNPTIYAYVGEKFRNYLLVFFQKHIAKRFCKCCSIFQQEAPERASSVYTRSTGEQEISVGL
modifications: labelled with a dye in the MST assay (dye and site not stated for this variant)
notes: Full-length (352 aa) QTY variant of CCR5, used as control in MST; also called CC15-22; full-length (352 aa) CCR5^QTY variant
B2: SZ218a = CCR5QTY(218a) (receptor)
chain: MDYQVSSPIYDINYYTSEPCQKINVKQIAARQQPPQYSQTYTFGFTGNMQTTQTQINCKRLKSMTDIYLQNQAISDQFFQQTTPFWAHYAAAQWDFGNTMCQQQTGQYFTGYYSGTYYTTQQLNTFQEFFGLNNCSSSNRLDQAMQTTETQGMTHCCINPTTYAYVGEKFRNYLLVFFQKHIAKRFCKCCSIFQQEAPERASSVYTRSTGEQEISVGL
modifications: labelled with the dye DY647P1 in the MST assay (site not stated)
notes: Dye-labelled in MST; fusion partner in yeast 2-hybrid not described; also called 5NA-43; CCR5_SZ218a DY647P1
B3: SZ190b = CCR5QTY(190b) (receptor)
chain: MDYQVSSPIYDINYYTSEPCQKINVKQIAARLQPPQYSQTFTFGFTGNMQTTQTQINCKRLKSMTDIYLQNQAISDQFFQQTTPYWAPYNTVQQQNTFQEFFGLNNCSSSNRLDQAMQVTETQGMTHCCTNPTIYAFVGEKFRNYLLVFFQKHIAKRFCKCCSIFQQEAPERASSVYTRSTGEQEISVGL
modifications: labelled with the dye DY647P1 in the MST assay (site not stated)
notes: Partial QTY variant of CCR5, 190 aa; Dye-labelled in MST; in the yeast 2-hybrid screen the fusion partner is not described; also called 5NA-17: Contig1; CCR5_SZ190b DY647P1

How the values were obtained:
Rantes (CCL5) [1] = molecular target: T1, Rantes (CCL5); test: MST (FIG. 5)
Experimental: (§1) Each run of assay systematically measures 16 capillaries with identical concentration of a non-full length CCR5^QTY variant, but different concentrations of Rantes (Prospecbio http://www.prospecbio.com/Rantes/) with 2 duplicate measurements (Technical repeat 1 and 2).
(§2) Briefly, serial dilution of the target molecule Rantes was prepared in buffer to match the final buffer conditions in the reaction mix. The highest concentration of target was 6.0 μM, and the lowest 184.0 pM. About 5 μl of each dilution step were mixed with 5 μl of the fluorescent molecule—a partial water-soluble […] variant of CCR5 (e.g., CCR5-SZ218a). The final reaction mixture, which was filled in capillaries, contained a respective amount of target molecule (max. conc. 3.0 μM, min conc. 92.0 pM) and constant 5 nM fluorescent molecule.
(§3) The samples were analyzed on a Monolith NT.115 Pico at 25° C., with 12% LED power and 80% Laser power. No sticking of the fluorescent interaction partner to the capillary walls was indicated in the capillary scan.

Rantes (CCL5) [2] = molecular target: T1, Rantes (CCL5); test: fluorescent MST (FIG. 5)
Experimental: as §1, §2, §3

Rantes (CCL5) [3] = molecular target: T1, Rantes (CCL5); test: MST (MicroScale Thermophoresis), labelled CCR5QTY variant constant, Rantes titrated (axis 0.01-10000 nM); left panel, fits of Tech. 1 and Tech. 2
Experimental: as §1, §2, §3

Rantes (CCL5) [4] = molecular target: T1, Rantes (CCL5); test: MST (MicroScale Thermophoresis), labelled CCR5QTY variant constant, Rantes titrated (axis 0.01-10000 nM); right panel, fits of Tech. 1 and Tech. 2
Experimental: as §1, §2, §3

Rantes (CCL5) [5] = molecular target: T1, Rantes (CCL5); test: MST, run 3, LED power 15%, technical repeat
Experimental: as §1, §2

Rantes (CCL5) [6] = molecular target: T1, Rantes (CCL5); test: MST, run 1, rounded value of the two technical repeats
Experimental: as §1, §2, §3

Rantes (CCL5) [7] = molecular target: T1, Rantes (CCL5); test: MST, run 2, rounded value of the two technical repeats (FIG. 6)
Experimental: as §1, §2, §3

Rantes (CCL5) [8] = molecular target: T1, Rantes (CCL5); test: MST, run 1, technical repeat; dye-labelled variant at 5 nM, Rantes titrated
Experimental: as §1, §2, §3

Rantes (CCL5) [9] = molecular target: T1, Rantes (CCL5); test: MST, run 2, technical repeat; dye-labelled variant at 5 nM, Rantes titrated
Experimental: as §1, §2, §3

Rantes (CCL5) [10] = molecular target: T1, Rantes (CCL5); test: MST, run 2, technical repeat; run 2, first technical repeat
Experimental: as §1, §2, §3

Rantes (CCL5) [11] = molecular target: T1, Rantes (CCL5); test: MST, run 3, technical repeat; run 3, first technical repeat
Experimental: as §1, §2, §3

Rantes (CCL5) [12] = molecular target: T1, Rantes (CCL5); test: MST, run 2, technical repeat; run 2, second technical repeat
Experimental: as §1, §2, §3

Rantes (CCL5) [13] = molecular target: T1, Rantes (CCL5); test: MST, run 3, technical repeat; run 3, second technical repeat
Experimental: as §1, §2, §3

Rantes (CCL5) [14] = molecular target: T1, Rantes (CCL5); test: MST, run 1, technical repeat; dye-labelled variant at 5 nM, Rantes titrated (FIG. 7); run 1, first technical repeat
Experimental: as §1, §2, §3

Rantes (CCL5) [15] = molecular target: T1, Rantes (CCL5); test: MST, run 1, technical repeat; dye-labelled variant at 5 nM, Rantes titrated (FIG. 7); run 1, second technical repeat
Experimental: as §1, §2, §3

| Binder | Kd (Rantes (CCL5) [1]) [nM] | Kd (Rantes (CCL5) [2]) [nM] | Kd (Rantes (CCL5) [3]) [nM] | Kd (Rantes (CCL5) [4]) [nM] | Kd (Rantes (CCL5) [5]) | Kd (Rantes (CCL5) [6]) [nM] | Kd (Rantes (CCL5) [7]) [nM] | Kd (Rantes (CCL5) [8]) | Kd (Rantes (CCL5) [9]) | Kd (Rantes (CCL5) [10]) [nM] | Kd (Rantes (CCL5) [11]) [nM] | Kd (Rantes (CCL5) [12]) [nM] | Kd (Rantes (CCL5) [13]) [nM] | Kd (Rantes (CCL5) [14]) [nM] | Kd (Rantes (CCL5) [15]) [nM] |
| --- | --- | --- | --- | --- | --- | --- | --- | --- | --- | --- | --- | --- | --- | --- | --- |
| B1 | 28 to 32 | ~30 | ~28 | ~32 | – | – | – | – | – | – | – | – | – | – | – |
| B2 | – | – | – | – | 86.9 nM and 94.6 nM | ~75 | ~80 | 74.5 nM and 76.2 nM | 80.2 nM and 83.2 nM | – | – | – | – | – | – |
| B3 | – | – | ~46 | ~48 | – | – | – | – | – | 27.4 | 32 | 56.5 | 54.9 | 46.5 | 51.8 |
